Source: article PMC3742642 (Structure (London, England : 1993), 2013)

B1: bacteriophage ϕ6 capsid protein P1, full length, C-terminal His6-tag (natural protein, UniProt P11126 1-769, looked up)
chain: MFNLKVKDLNGSARGLTQAFAIGELKNQLSVGALQLPLQFTRTFSASMTSELLWEVGKGNIDPVMYARLFFQYAQAGGALSVDELVNQFTEYHQSTACNPEIWRKLTAYITGSSNRAIKADAVGKVPPTAILEQLRTLAPSEHELFHHITTDFVCHVLSPLGFILPDAAYVYRVGRTATYPNFYALVDCVRASDLRRMLTALSSVDSKMLQATFKAKGALAPALISQHLANAATTAFERSRGNFDANAVVSSVLTILGRLWSPSTPKELDPSARLRNTNGIDQLRSNLALFIAYQDMVKQRGRAEVIFSDEELSSTIIPWFIEAMSEVSPFKLRPINETTSYIGQTSAIDHMGQPSHVVVYEDWQFAKEITAFTPVKLANNSNQRFLDVEPGISDRMSATLAPIGNTFAVSAFVKNRTAVYEAVSQRGTVNSNGAEMTLGFPSVVERDYALDRDPMVAIAALRTGIVDESLEARASNDLKRSMFNYYAAVMHYAVAHNPEVVVSEHQGVAAEQGSLYLVWNVRTELRIPVGYNAIEGGSIRTPEPLEAIAYNKPIQPSEVLQAKVLDLANHTTSIHIWPWHEASTEFAYEDAYSVTIRNKRYTAEVKEFELLGLGQRRERVRILKPTVAHAIIQMWYSWFVEDDRTLAAARRTSRDDAEKLAIDGRRMQNAVTLLRKIEMIGTTGIGASAVHLAQSRIVDQMAGRGLIDDSSDLHVGINRHRIRIWAGLAVLQMMGLLSRSEAEALTKVLGDSNALGMVVATTDIDPSL
B2: bacteriophage ϕ6 capsid protein P1, wild type, in P1247 procapsids (natural protein)
chain: FNLKVKDLNGSARGLTQAFAIGELKNQLSVGALQLPLQFTRTFSASMTSELLWEVGKGNIDPVMYARLFFQYAQAGGALSVDELVNQFTEYHQSTACNPEIWRKLTAYITGSSNRAIKADAVGKVPPTAILEQLRTLAPSEHELFHHITTDFVCHVLSPLGFILPDAAYVYRVGRTATYPNFYALVDCVRASDLRRMLTALSSVDSKMLQATFKAKGALAPALISQHLANAATTAFERSRGNFDANAVVSSVLTILGRLWSPSTPKELDPSARLRNTNGIDQLRSNLALFIAYQDMVKQRGRAEVIFSDEELSSTIIPWFIEAMSEVSPFKLRPINETTSYIGQTSAIDHMGQPSHVVVYEDWQFAKEITAFTPVKLANNSNQRFLDVEPGISDRMSATLAPIGNTFAVSAFVKNRTAVYEAVSQRGTVNSNGAEMTLGFPSVVERDYALDRDPMVAIAALRTGIVDESLEARASNDLKRSMFNYYAAVMHYAVAHNPEVVVSEHQGVAAEQGSLYLVWNVRTELRIPVGYNAIEGGSIRTPEPLEAIAYNKPIQPSEVLQAKVLDLANHTTSIHIWPWHEASTEFAYEDAYSVTIRNKRYTAEVKEFELLGLGQRRERVRILKPTVAHAIIQMWYSWFVEDDRTLAAARRTSRDDAEKLAIDGRRMQNAVTLLRKIEMIGTTGIGASAVHLAQSRIVDQMAGRGLIDDSSDLHVGINRHRIRIWAGLAVLQMMGLLSRSEAEALTKVLGDSNALGMVVATTDIDPSL

Columns and labels:
SEC = target: the molecule itself; test: SEC
crystal structure = target: the molecule itself; test: crystal structure
cryo-EM structure = target: the molecule itself; test: cryo-EM structure

| Protein | stoichiometry N (SEC) | stoichiometry N (crystal structure) | stoichiometry N (cryo-EM structure) |
| --- | --- | --- | --- |
| B1 | 2 | 5 |  |
| B2 |  |  | 120 |
